Test results from patent publication US20220098319A1 (SHANGHAI PHARMAEXPLORER, published 2022).

How the values were obtained:
[1] = molecular target: T1, human CD73 (full length, on transfected CHOK1 cells) (human, UniProt P21589 27-549); assay: cell-based or functional assay
T1 sequence (looked up): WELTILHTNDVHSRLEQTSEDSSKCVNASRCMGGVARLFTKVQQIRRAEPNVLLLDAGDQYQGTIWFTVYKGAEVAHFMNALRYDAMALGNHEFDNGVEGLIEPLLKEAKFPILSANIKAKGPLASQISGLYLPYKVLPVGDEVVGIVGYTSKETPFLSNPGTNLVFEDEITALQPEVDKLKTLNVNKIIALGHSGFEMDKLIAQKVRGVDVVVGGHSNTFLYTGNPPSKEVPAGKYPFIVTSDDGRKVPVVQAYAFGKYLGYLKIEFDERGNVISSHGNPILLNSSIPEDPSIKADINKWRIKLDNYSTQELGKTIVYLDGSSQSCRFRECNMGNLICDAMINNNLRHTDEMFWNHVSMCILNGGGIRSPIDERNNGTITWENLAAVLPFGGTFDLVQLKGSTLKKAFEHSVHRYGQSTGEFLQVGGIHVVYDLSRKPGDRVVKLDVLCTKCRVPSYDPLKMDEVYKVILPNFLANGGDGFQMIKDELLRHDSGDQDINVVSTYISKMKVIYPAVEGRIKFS

[2] = molecular target: T2, cynomolgus monkey CD73 (on transfected CHOK1 cells) (cynomolgus monkey, UniProt A0A2K5V5U7 27-549); assay: FACS on CHOK1-cCD73 cells
T2 construct: whole, on cells; also called CHOK1-cCD73; CHOK1-CCD73
T2 sequence: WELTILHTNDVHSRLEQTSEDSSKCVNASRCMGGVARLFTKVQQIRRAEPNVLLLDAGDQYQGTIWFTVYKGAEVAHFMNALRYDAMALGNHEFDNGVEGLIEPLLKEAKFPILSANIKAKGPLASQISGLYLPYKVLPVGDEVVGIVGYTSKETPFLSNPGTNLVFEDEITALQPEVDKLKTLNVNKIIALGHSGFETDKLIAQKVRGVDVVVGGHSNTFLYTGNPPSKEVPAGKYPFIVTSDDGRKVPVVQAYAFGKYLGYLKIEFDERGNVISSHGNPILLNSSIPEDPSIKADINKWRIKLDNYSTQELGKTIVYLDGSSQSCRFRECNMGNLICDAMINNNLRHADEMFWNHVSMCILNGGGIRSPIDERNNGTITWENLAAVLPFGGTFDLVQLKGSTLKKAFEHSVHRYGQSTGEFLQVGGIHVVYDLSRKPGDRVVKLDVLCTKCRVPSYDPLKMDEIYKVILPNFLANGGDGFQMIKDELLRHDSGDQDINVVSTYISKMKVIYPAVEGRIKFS

[3] = molecular target: T3, His-tagged CD73 extracellular domain protein (hCD73 ECD-His) (human, UniProt P21589 27-547); assay: Octet BLI, antibody on AHC sensor, antigen 50-200 nM, 1:1 fit
T3 construct: Expressed in CHO cells from pTT5-hCD73 ECD-His6, purified on nickel column; also called hCD73 ECD-His6; human CD73 ECD
T3 sequence: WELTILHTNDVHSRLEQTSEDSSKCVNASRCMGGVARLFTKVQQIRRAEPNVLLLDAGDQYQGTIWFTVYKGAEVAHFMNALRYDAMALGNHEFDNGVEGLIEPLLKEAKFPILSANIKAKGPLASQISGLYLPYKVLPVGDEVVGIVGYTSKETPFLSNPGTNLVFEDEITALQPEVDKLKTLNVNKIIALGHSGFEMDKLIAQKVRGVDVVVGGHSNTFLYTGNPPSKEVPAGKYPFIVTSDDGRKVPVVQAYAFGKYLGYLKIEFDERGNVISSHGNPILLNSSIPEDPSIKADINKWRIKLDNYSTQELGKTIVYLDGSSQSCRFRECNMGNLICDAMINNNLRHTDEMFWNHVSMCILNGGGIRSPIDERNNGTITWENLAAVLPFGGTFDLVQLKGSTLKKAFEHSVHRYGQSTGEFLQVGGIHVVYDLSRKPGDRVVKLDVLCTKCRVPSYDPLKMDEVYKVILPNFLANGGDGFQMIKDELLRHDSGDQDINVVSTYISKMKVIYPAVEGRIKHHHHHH
Excerpt: Octet Red 96 was selected as the test instrument, and AHC biosensor was selected as the test sensor in this experiment. Anti-human IgG Fc antibody has been immobilized on the AHC sensor, which can be used to directly capture the 15 antibodies in this experiment. Then the sensor was immersed in the analysis sample (antigen). There were five steps in this experiment: 1, Baseline (120 s) 2, Loading (capture antibody) (300 s) 3, Baseline (120 s) 4, Association (binding antigen) (180 s) 5, Dissociation (antigen dissociation) (1200 s). After the test was completed, the regeneration buffer (Glycine PH1.5) and the neutralization buffer (1*PBS buffer) were alternately immersed for 5 seconds, and the sensor was regenerated by a total of five cycles. The maximum number of sensor regeneration times is 10. The running buffer in this experiment is the sample diluent (1*PBS buffer containing 0.02% Tween20 and 0.1% BSA), that is, the buffer used in the Baseline step, the Dissociation step, and the blank analyte sample. Four sensors are used at one running in this experiment.
Sample treatment: all the antibodies were diluted to the working concentration of 10 ug/ml with sample diluent (1*PBS buffer containing 0.02% Tween20 and 0.1% BSA), and the analyte samples (antigens) were diluted to three working concentrations: 200 nM, 100 nM and 50 nM.
For data analysis, Octet Data Analysis (version 7.0) was used to calculate the response signal value (the signal of the coupled analyte sample minus the signal of the blank analyte sample), and a 1:1 binding model was used to fit the data.

[4] = molecular target: T1, human CD73 (full length, on transfected …); assay: FACS on CHOK1-hCD73 cells
[5] = molecular target: T4, murine CD73 (on transfected CHOK1 cells) (mouse, UniProt Q61503 29-551); assay: FACS on CHOK1-mCD73 cells
T4 construct: whole, on cells; also called CHOK1-mCD73; mCD73
T4 sequence (looked up): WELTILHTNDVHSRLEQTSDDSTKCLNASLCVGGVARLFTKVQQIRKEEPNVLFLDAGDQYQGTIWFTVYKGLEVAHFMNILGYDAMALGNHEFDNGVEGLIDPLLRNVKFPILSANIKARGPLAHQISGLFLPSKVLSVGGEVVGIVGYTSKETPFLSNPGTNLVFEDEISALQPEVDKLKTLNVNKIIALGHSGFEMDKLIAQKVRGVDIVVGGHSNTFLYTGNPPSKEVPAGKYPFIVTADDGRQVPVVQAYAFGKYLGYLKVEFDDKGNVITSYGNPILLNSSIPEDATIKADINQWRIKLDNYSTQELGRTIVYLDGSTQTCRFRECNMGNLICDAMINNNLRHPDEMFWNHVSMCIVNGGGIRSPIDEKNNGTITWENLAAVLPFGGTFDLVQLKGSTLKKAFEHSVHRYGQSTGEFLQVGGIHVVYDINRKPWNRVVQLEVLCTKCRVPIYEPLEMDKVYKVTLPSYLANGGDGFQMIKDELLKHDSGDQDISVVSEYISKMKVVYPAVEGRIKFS

[6] = molecular target: T3, His-tagged CD73 extracellular domain …; assay: affinity to hCD73 ECD-His (headed SPR; Octet assumed as in 5.5)

B1: mab065xhIgG1TM (clone 125A4E10), mouse-human chimeric anti-CD73 antibody (antibody, V domains shown)
VH: EVQLQQSGPELVKPGASVKISCKASGYTFTDYYMNWVKQSHGKSLEWIGNINPNNGDTNYNQKFKGKATLTVDKSSSTASMELRSLTSEDSAVYYCANSGYYYFDYWGQGTTLTVSS
VL: DIVMTQSPSSLTVTAGEKVTMSCKSSQSLLNSGNQKNYLTWYQQKPGQPPKVLIYWASTRESGVPDRFTGSGSGTDFTLTISSVQAEDLAVYYCQNDYSYPPTFGGGTNLEIK
notes: also called mAb065 chimeric antibody
Inhibition assay of enzyme activity, IC50 [1]: 0.1 nM
Inhibition assay of enzyme activity, MAX % inhibition [1]: 54.7%
EC50 [2]: 3.6 nM
MAX MFI fold [2]: 173 fold
Kd [3]: 0.112 nM
koff [3]: 4.86e-05 s⁻¹
kon [3]: 434000 M⁻¹ s⁻¹
EC50 [4]: 1.2 nM
MAX MFI fold [4]: 160 fold
binding result [5]: no binding

B2: mab044xhIgG1TM (clone 80H7D6), mouse-human chimeric anti-CD73 antibody (antibody, V domains shown)
VH: EVKLVESGGGLVQPGGSLRLSCAASGFTFTDYYMSWVRQPPGKALEWLGFIRNKADGSTTEYSASVKGRFTISRDNSQSILYLQMNALRPEDSATYYCTRSPIYFDNWYFDVWGTGTTVTVSS
VL: DIVMSQSPSSLAVSVGEKVTMTCKSSQSLLYSNNQKNYLAWYQQKPGQSPKLLIYWASTRESGVPDRFTGSGSGTDFTLTLSSVKAEDLAVYYCQQYYSYPFTFGSGTKLEIK
notes: also called mAb044 chimeric antibody
Inhibition assay of enzyme activity, IC50 [1]: 0.1 nM
Inhibition assay of enzyme activity, MAX % inhibition [1]: 49.1%
EC50 [2]: 7.6 nM
MAX MFI fold [2]: 174 fold
Kd [3]: 0.086 nM
koff [3]: 3.29e-05 s⁻¹
kon [3]: 383000 M⁻¹ s⁻¹
EC50 [4]: > 10 nM
MAX MFI fold [4]: > 150 fold
binding result [5]: no binding

B3: mab030xhIgG1TM (clone 42A5A7), mouse-human chimeric anti-CD73 antibody (antibody, V domains shown)
VH: DIQLQESGPGLVKPSQSLSLTCSVTGYSITSRYYWNWIRQFPGNKLEWMGYITYDDNNNYNPSLKNRISITRDTSKNQFFLKLNSVTPEDTATYYCARGGWDPFLYWGQGTLVTVSA
VL: DIQMTQSPASLSASVGETVTITCRASDNIYSYLAWYQQKQGKSLQLLVDSAKNLGEGVPSRFSGSGSGTQFYLKINSLQPEDFGVYYCQHYYGTPFTFGGGTKLELK
notes: also called mAb030 chimeric antibody
Inhibition assay of enzyme activity, IC50 [1]: 0.1 nM
Inhibition assay of enzyme activity, MAX % inhibition [1]: 67.4%
EC50 [2]: 0.8 nM
MAX MFI fold [2]: 138 fold
Kd [3]: 0.0385 nM
koff [3]: 1.16e-05 s⁻¹
kon [3]: 302000 M⁻¹ s⁻¹
Kd [6]: 0.0316 nM
koff [6]: 2.27e-05 s⁻¹
kon [6]: 719000 M⁻¹ s⁻¹
EC50 [4]: 1.5 nM
MAX MFI fold [4]: 114 fold
binding result [5]: no binding

B4: mab042xhIgG1TM (clone 77B9A3), mouse-human chimeric anti-CD73 antibody (antibody, V domains shown)
VH: QVQLQQSGAGLVKPGASVKLSCKASGYTFTNYWMHWVKQRPGQGLEWIGMIHPNSGSTNNNEKFKNKATLTVDKSSNTAYMQLSSLTSEDSAVYYCARFFFGGYPHYYALDYWGQGTSVTVSS
VL: DIVMTQSQKFMSTTVGDRVSITCKASQNVGTAVAWYQQKPGQSPKLLIYSASDRYTGVPDRLTGSGSGTDFTLTISNVQSEDLADYFCQQYSSFPLFTFGSGTKLVIQ
notes: also called mAb042 chimeric antibody
Inhibition assay of enzyme activity, IC50 [1]: 0.5 nM
Inhibition assay of enzyme activity, MAX % inhibition [1]: 66.3%
EC50 [2]: 5.9 nM
MAX MFI fold [2]: 132 fold
Kd [3]: 0.0592 nM
koff [3]: 2.73e-05 s⁻¹
kon [3]: 461000 M⁻¹ s⁻¹
EC50 [4]: 2.3 nM
MAX MFI fold [4]: 136 fold
binding result [5]: no binding

B5: Hu030-2, humanized anti-CD73 antibody (Hu030VH g1 / Hu030VL g0) (antibody, V domains shown)
VH: QVQLQESGPGLVKPSETLSLTCTVSGYSITSRYYWNWIRQPPGKGLEWIGYITYDDNNNYNPSLKNRVTISRDTSKNQFSLKLSSVTAADTAVYYCARGGWDPFLYWGQGTLVTVSS
VL: DIQMTQSPSSLSASVGDRVTITCRASDNIYSYLAWYQQKPGKAPKLLIYSAKNLGEGVPSRFSGSGSGTDFTLTISSLQPEDFATYYCQHYYGTPFTFGGGTKVEIK
notes: also called antibody 11
Kd [6]: 0.0208 nM
koff [6]: 1.55e-05 s⁻¹
kon [6]: 746000 M⁻¹ s⁻¹

B6: mab038xhIgG1TM (clone 69C9E12), mouse-human chimeric anti-CD73 antibody (antibody, V domains shown)
VH: QVQLQQPGTELVNPGASVKLSCKASGYTFTSYWMHWVKQRPGQGLEWIGNINPSNGGTHYNEKFNNKATLTVDKSSSTAYMQLSSLTSEDSAVFYCARGDYAYDWYFTVWGTGTTVTVSS
VL: DIVLTQSPASLAVSLGQRAIISCKASQSVSFAGTGLMHWYQQKPGQQPKLLIYRVSNLEAGIPTRFSGSGSRTDFTLNIHPVEEDDAATYYCQQNREFPWTFGGGTKLEIK
notes: also called mAb038 chimeric antibody
Inhibition assay of enzyme activity, IC50 [1]: 0.8 nM
Inhibition assay of enzyme activity, MAX % inhibition [1]: 52.4%
EC50 [2]: 2.3 nM
MAX MFI fold [2]: 167 fold
Kd [3]: 0.124 nM
koff [3]: 2.97e-05 s⁻¹
kon [3]: 240000 M⁻¹ s⁻¹
EC50 [4]: 1.8 nM
MAX MFI fold [4]: 120 fold
binding result [5]: no binding

B7: mab041xhIgG1TM (clone 71E10B3), mouse-human chimeric anti-CD73 antibody (antibody, V domains shown)
VH: QVQLQQPGTELVKPGASVKLSCKASGYTFTSYWMHWVKQRPGQGLEWIGNINPSNGGTNYNQKFKSKATLTVDKSSNTASMQLSSLTSEDSAVYYCARGDYGYDWYLDVWGTGTTVTVSS
VL: DIVLTQSPASLAVSLGQRAIISCKASQSVSFAGPSLMHWYQQKPGQQPKLLIYRTSNLEAGVPTRFSGSGSGTDFTLNIHPVEEDDAATYYCQQNREFPWTFGGGTKLEIK
notes: also called mAb041 chimeric antibody
Inhibition assay of enzyme activity, IC50 [1]: 0.7 nM
Inhibition assay of enzyme activity, MAX % inhibition [1]: 54.4%
EC50 [2]: 2 nM
MAX MFI fold [2]: 167 fold
Kd [3]: 0.298 nM
koff [3]: 4.41e-05 s⁻¹
kon [3]: 148000 M⁻¹ s⁻¹
EC50 [4]: 1.3 nM
MAX MFI fold [4]: 127 fold
binding result [5]: no binding
